According to paper PMC12162814:

Assays:
H-NSctd K107A = H-NSctd K107A (Salmonella enterica serovar Typhimurium, UniProt P0A1S2 85-137, K107A); test: NMR titration
H-NSctd T115A = H-NSctd T115A (Salmonella enterica serovar Typhimurium, UniProt P0A1S2 85-137, T115A); test: NMR titration
H-NSctd WT [1] = biological target: T1, H-NSctd WT (Salmonella enterica serovar Typhimurium, UniProt P0A1S2 85-137); test: NMR titration
H-NSctd WT [2] = biological target: T1, H-NSctd WT; test: ITC
H-NSctd WT [3] = biological target: T1, H-NSctd WT; test: NMR titration; remark: listed apart in the source

B1: 3AT DNA (dsDNA)
DNA 1: CGCATATATGCG
DNA 2: CGCATATATGCG
Kd (H-NSctd K107A): 5.3 ± 1.6 µM | Kd (H-NSctd T115A): 4.1 ± 1.2 µM | Kd (H-NSctd WT [1]): 1.5 ± 0.5 µM | Kd (H-NSctd WT [2]): 7.6 ± 0.5 µM | Kd (H-NSctd WT [3]): 6.3 ± 0.6 µM
